Several values for one entry are separate records, joined by “and”; a condition that tells them apart may be missing. Equal entries are not always repeated. Where two headings read alike, the source gives them in different places.
Experiments:
Human OSM [1] = target: T1, Human OSM (human, UniProt P13725 26-221); assay: BIAcore kinetics
T1 construct: Recombinant human OSM; also called hOSM; human Oncostatin M
T1 sequence: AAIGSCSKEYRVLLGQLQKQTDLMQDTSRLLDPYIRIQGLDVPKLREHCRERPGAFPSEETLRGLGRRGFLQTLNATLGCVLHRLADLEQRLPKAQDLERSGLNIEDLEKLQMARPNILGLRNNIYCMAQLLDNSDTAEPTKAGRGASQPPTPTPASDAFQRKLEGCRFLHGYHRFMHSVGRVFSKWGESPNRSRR

Cynomolgus OSM [2] = target: T2, Cynomolgus OSM (cynomolgus, UniProt A0A2K5VPC6 26-221); assay: BIAcore kinetics
T2 construct: also called Cyno OSM; cynomolgus macaque OSM
T2 sequence: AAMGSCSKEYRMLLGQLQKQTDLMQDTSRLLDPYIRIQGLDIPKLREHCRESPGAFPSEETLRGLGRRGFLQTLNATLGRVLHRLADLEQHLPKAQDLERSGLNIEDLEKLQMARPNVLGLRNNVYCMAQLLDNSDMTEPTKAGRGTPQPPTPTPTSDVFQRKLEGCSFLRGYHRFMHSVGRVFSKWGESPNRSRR

Human OSM [3] = target: T1, Human OSM; assay: BIAcore kinetics; remark: listed apart in the source
Cynomolgus OSM [4] = target: T2, Cynomolgus OSM; assay: BIAcore kinetics; remark: listed apart in the source
Human OSM [5] = target: T1, Human OSM; assay: BIAcore kinetics; remark: listed apart in the source
Cynomolgus OSM [6] = target: T2, Cynomolgus OSM; assay: BIAcore kinetics; remark: listed apart in the source
Human OSM [7] = target: T1, Human OSM; assay: cell-based or functional assay
Human OSM [8] = target: T1, Human OSM; assay: cell-based or functional assay; remark: listed apart in the source
Cynomolgus OSM [9] = target: T2, Cynomolgus OSM; assay: cell-based or functional assay
Human OSM [10] = target: T1, Human OSM; assay: cell-based or functional assay; remark: listed apart in the source
Cynomolgus OSM [11] = target: T2, Cynomolgus OSM; assay: cell-based or functional assay; remark: listed apart in the source
Human OSM [12] = target: T1, Human OSM; assay: cell-based or functional assay; remark: listed apart in the source
Cynomolgus OSM [13] = target: T2, Cynomolgus OSM; assay: cell-based or functional assay; remark: listed apart in the source
Marmoset OSM [14] = target: Marmoset OSM (marmoset); assay: cell-based or functional assay
Human OSM [15] = target: T1, Human OSM; assay: cell-based or functional assay; remark: listed apart in the source
Human OSM [16] = target: T1, Human OSM; assay: human gp130 ELISA, inhibition of OSM binding to gp130
Cynomolgus OSM [17] = target: T2, Cynomolgus OSM; assay: as above
Human OSM [18] = target: T1, Human OSM; assay: as above; remark: listed apart in the source
Cynomolgus OSM [19] = target: T2, Cynomolgus OSM; assay: as above; remark: listed apart in the source
[20] = target: T3, Endogenous human OSM (neutrophil-derived) (human, UniProt P13725 26-221, limits assumed); assay: gp130 ELISA with endogenous neutrophil-derived human OSM
T3 construct: Native OSM generated from GM-CSF stimulation of healthy human neutrophils; also called native OSM; endogenous OSM
T3 sequence: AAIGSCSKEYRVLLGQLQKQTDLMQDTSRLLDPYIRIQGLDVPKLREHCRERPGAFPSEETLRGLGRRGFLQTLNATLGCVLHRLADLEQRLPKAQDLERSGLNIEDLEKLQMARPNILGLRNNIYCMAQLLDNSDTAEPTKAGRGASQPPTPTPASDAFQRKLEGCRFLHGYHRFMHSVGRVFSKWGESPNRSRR

[21] = target: T3, Endogenous human OSM …; assay: as above; remark: listed apart in the source
Human OSM [22] = target: T1, Human OSM; assay: BIAcore, purified antibody
Human OSM [23] = target: T1, Human OSM; assay: cell-based or functional assay; remark: listed apart in the source
Cynomolgus OSM [24] = target: T2, Cynomolgus OSM; assay: cell-based or functional assay; remark: listed apart in the source
Human OSM [25] = target: T1, Human OSM; assay: Kinexa solution phase affinity
Experimental: (§1) Kinexa (Sapidyne Instruments 3200) solution phase affinity was used to determine the overall affinity of anti-OSM antibody H0(huCDRH1)L1 and Humanised 15E10 (an unrelated OSM antibody) to human, cynomolgus macaque, rhesus macaque and marmoset OSM (Table 15). Humanised 15E10 was added for comparison purposes.
(§2) OSM beads were prepared either by adsorption (polymethylmethacrylate beads-PMMA) or amine coupling (NHS-activated sepharose beads). The range of OSM molecules studied necessitated the generation of beads coated with different concentrations of OSM. For the solution phase portion of the assay, a fixed concentration of antibody was incubated with a broad range of OSM concentrations and allowed to reach equilibrium by incubation at r.t. for at least 2 h before analysis proceeded. The OSM beads were then used to determine the amount of free antibody present in the solution phase samples, by means of the free antibody binding to the OSM bead matrix then detected using an appropriate secondary antibody (either anti-human or anti-mouse depending on the construct being tested) labelled with a fluorescent dye. The binding curves where fitted using the Kinexa Pro analysis software inherent to the machine. Multiple runs using varying starting concentrations of antibody were then compiled and analysed using the n-curve analysis software to give a more accurate determination of affinity.

Cynomolgus OSM [26] = target: T2, Cynomolgus OSM; assay: Kinexa solution phase affinity
Experimental: as §1, §2

Marmoset OSM [27] = target: T4, Marmoset OSM (marmoset); assay: Kinexa solution phase affinity
T4 construct: also called Marm OSM
Experimental: as §1, §2

Rhesus OSM = target: T5, Rhesus OSM (rhesus macaque, UniProt F7GF43 26-221); assay: Kinexa solution phase affinity
T5 construct: also called rhesus macaque OSM
T5 sequence: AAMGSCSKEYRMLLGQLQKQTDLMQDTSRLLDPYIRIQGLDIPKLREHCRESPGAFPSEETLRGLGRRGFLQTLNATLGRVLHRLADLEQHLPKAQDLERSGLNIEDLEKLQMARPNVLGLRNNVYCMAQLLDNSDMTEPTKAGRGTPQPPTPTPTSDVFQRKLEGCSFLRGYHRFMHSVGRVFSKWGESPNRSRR
Experimental: as §1, §2

Human OSM [28] = target: T1, Human OSM; assay: cell-based or functional assay; remark: listed apart in the source
Human OSM [29] = target: T1, Human OSM; assay: cell-based or functional assay; remark: listed apart in the source
Human OSM [30] = target: T1, Human OSM; assay: cell-based or functional assay; remark: listed apart in the source
Human OSM [31] = target: T1, Human OSM; assay: cell-based or functional assay; remark: listed apart in the source
Human OSM [32] = target: T1, Human OSM; assay: cell-based or functional assay; remark: listed apart in the source
Human OSM [33] = target: T1, Human OSM; assay: cell-based or functional assay; remark: listed apart in the source
Human OSM [34] = target: T1, Human OSM; assay: cell-based or functional assay; remark: listed apart in the source
Human OSM [35] = target: T1, Human OSM; assay: cell-based or functional assay; remark: listed apart in the source
Human OSM [36] = target: T1, Human OSM; assay: BIAcore kinetics, purified antibody
Cynomolgus OSM [37] = target: T2, Cynomolgus OSM; assay: BIAcore kinetics, purified antibody
Human OSM [38] = target: T1, Human OSM; assay: BIAcore kinetics, transfection supernatant
Cynomolgus OSM [39] = target: T2, Cynomolgus OSM; assay: BIAcore kinetics, transfection supernatant
[40] = target: T3, Endogenous human OSM …; assay: gp130 ELISA with endogenous neutrophil-derived human OSM; remark: listed apart in the source

B1: anti human OSM mAb S168110G08(1)1A09 (10G8), murine (antibody, V domains shown)
VH: EMQLVESGEGLVEPGGSLKLSCAASGFTFSNYAMSWVRQTPEKSLEWVATISDGGSFTYYLDNVRGRFTISRDNAKNNLYLQMSHLKSDDTAMYYCARDVGHTTFWYFDVWGSGTAVTVSS
VL: DIVLTQSPVFLVVSLGQRATISCRASKSVSAAGYNFMHWYQQKPGQPPKVLIKYASNLESGVPARFSGSGSGTDFTLNIHPVEEEDAVTYYCLHSREFPFTFGGGTNLEIK
notes: Mouse hybridoma mAb; also called 10G8/A9; 10G8.A9
Human OSM [1]
  fold increased affinity compared with 15E10: 8 fold
Cynomolgus OSM [2]
  fold increased affinity compared with 15E10: 11 fold
Human OSM [3]
  Kd: 0.55 nM
Cynomolgus OSM [4]
  Kd: 0.308 nM
Human OSM [5]
  Kd: 0.549 nM
  koff: 6.14e-05 s⁻¹
  kon: 112000 M⁻¹ s⁻¹
Cynomolgus OSM [6]
  Kd: 0.308 nM
  koff: 2.99e-05 s⁻¹
  kon: 96900 M⁻¹ s⁻¹
Human OSM [7]
  KB cell neutralisation assay, potency compared with 15E10: 15 fold
Human OSM [8]
  KB cell neutralisation assay, mean IC50: 0.008 µg/ml and 53 pM
Cynomolgus OSM [9]
  KB cell neutralisation assay, mean IC50: 0.006 µg/ml and 40 pM
Human OSM [10]
  KB cell neutralisation assay, mean IC50: 0.054 µg/ml and 360 pM
Cynomolgus OSM [11]
  KB cell neutralisation assay, mean IC50: 0.034 µg/ml and 227 pM
Human OSM [12]
  KB cell neutralisation assay, mean IC50: 0.0026 µg/ml and 17 pM
Cynomolgus OSM [13]
  KB cell neutralisation assay, mean IC50: 0.0017 µg/ml and 11 pM
Marmoset OSM [14]
  KB cell neutralisation assay, mean IC50: 0.0017 µg/ml and 11 pM
Human OSM [15]
  IC50 (read off the curve); IL-6 release from KB cells stimulated with human OSM, 25% human AB serum: ~0.02 µg/mL
Human OSM [16]
  IC50: 0.06 µg/mL and 0.4 nM
Cynomolgus OSM [17]
  IC50: 0.01 µg/mL and 0.04 nM
Human OSM [18]
  IC50: 0.044 µg/mL and 0.293 nM
Cynomolgus OSM [19]
  IC50: 0.017 µg/mL and 0.113 nM
[20]
  IC50: 0.009 µg/mL and 0.06 nM
[21]
  IC50: 0.009 µg/mL and 0.06 nM

B2: Humanised 10G8 H0(IGHV3-23)L1 (antibody, human IgG1, kappa, V domains shown)
VH: EVQLVESGGGLVQPGGSLRLSCAASGFTFSSYAMSWVRQAPGKGLEWVATISDGGSFTYYLDNVRGRFTISRDNAKNSLYLQMNSLRAEDTAVYYCARDVGHTTFWYFDVWGRGTLVTVSS
VL: DIVMTQSPDSLAVSLGERATINCRASKSVSAAGYNFMHWYQQKPGQPPKVLIYYASNLESGVPDRFSGSGSGTDFTLTISSLQAEDVAVYYCLHSREFPFTFGGGTKVEIKR
notes: IgG1 kappa; also called H0(huCDRH1)L1; H0 (CDRH1 IGHV3_23) L1
Human OSM [22]
  fold increased affinity compared with 15E10h: 6.5 fold
Human OSM [23]
  KB cell neutralisation assay, mean IC50: 0.008 µg/ml and 53 pM
Cynomolgus OSM [24]
  KB cell neutralisation assay, mean IC50: 0.007 µg/ml and 47 pM
Human OSM [12]
  KB cell neutralisation assay, mean IC50: 0.003 µg/ml and 20 pM
Cynomolgus OSM [13]
  KB cell neutralisation assay, mean IC50: 0.0041 µg/ml and 27 pM
Marmoset OSM [14]
  KB cell neutralisation assay, mean IC50: 0.0036 µg/ml and 24 pM
Human OSM [25]
  Kd: 0.038 nM
Cynomolgus OSM [26]
  Kd: 0.053 nM
Marmoset OSM [27]
  Kd: 0.021 nM
Rhesus OSM
  Kd: 0.122 nM
Human OSM [28]
  IC50 (read off the curve); IL-6 release from HFLS-RA cells stimulated with 0.3 ng/ml human OSM: ~0.006 nM
Human OSM [29]
  IC50 (read off the curve); IL-6 release from HFLS-RA cells stimulated with 3 ng/ml human OSM: ~0.1 nM
Human OSM [30]
  IC50 (read off the curve); MCP-1 release from HFLS-RA cells stimulated with 0.3 ng/ml human OSM: ~0.005 nM
Human OSM [31]
  IC50 (read off the curve); MCP-1 release from HFLS-RA cells stimulated with 3 ng/ml human OSM: ~0.1 nM
Human OSM [32]
  IC50 (read off the curve); MCP-1 release from normal human lung fibroblasts stimulated with 3 ng/ml OSM: ~0.01 µg/mL
Human OSM [33]
  IC50 (read off the curve); MCP-1 release from IPF human lung fibroblasts stimulated with 3 ng/ml OSM: ~0.03 µg/mL
Human OSM [34]
  IC50 (read off the curve); IL-6 release from normal human lung fibroblasts stimulated with 3 ng/ml OSM: ~0.006 µg/mL
Human OSM [35]
  IC50 (read off the curve); IL-6 release from IPF human lung fibroblasts stimulated with 3 ng/ml OSM: ~0.01 µg/mL
Human OSM [36]
  Kd: 0.136 nM
  koff: 9.65e-05 s⁻¹
  kon: 709000 M⁻¹ s⁻¹
Cynomolgus OSM [37]
  Kd: 0.199 nM
  koff: 8.39e-05 s⁻¹
  kon: 423000 M⁻¹ s⁻¹
Human OSM [38]
  Kd: 0.437 nM
  koff: 0.000158 s⁻¹
  kon: 361000 M⁻¹ s⁻¹
Cynomolgus OSM [39]
  Kd: 0.31 nM
  koff: 0.000109 s⁻¹
  kon: 352000 M⁻¹ s⁻¹
[40]
  fold increase in potency compared with 15E10h: ~12 fold
[21]
  IC50: 0.0062 µg/mL and 0.041 nM

Source: patent publication US20130251724A1 (GlaxoSmithKline, published 2013)
